Drawing on the Immune Epitope Database (IEDB), this text covers Kd and IC50 for 72 sequences.

Some results are limits rather than exact numbers.

The target of assay [1] is HLA-A*68:02. The assay is described as follows: IEDB peptide-MHC binding, purified MHC/competitive/radioactivity; filed as Kd, often an IC50 or EC50 that approximates it; ≥ and ≤ were set here for values at or beyond the usual limits of such assays.
Assay [2] concerns the target HLA-B*44:03. Described as above.
Assay [3] concerns the target HLA-B*44:02. Described as above.
Assay [4] addresses HLA-B*40:01. The assay is described as above.
Assay [5] addresses HLA-A*02:06. Described as above.
Assay [6] concerns the target HLA-A*02:01. The assay is described as follows: IEDB peptide-MHC binding, purified MHC/competitive/fluorescence; ≥ and ≤ were set here for values at or beyond the usual limits of such assays. The following applies: source organism: Zaire ebolavirus.
Assay [7] addresses HLA-A*24:02. The description is as above.
Assay [8] has as its target HLA-A*11:01. The assay is described as follows: IEDB peptide-MHC binding, purified MHC/direct/fluorescence; filed as Kd, often an IC50 or EC50 that approximates it; ≥ and ≤ were set here for values at or beyond the usual limits of such assays. Particulars: source organism: Pseudomonas tolaasii.
For assay [9], the target named is HLA-B*27:05. The description is as above. Particulars: source organism: Pseudomonas tolaasii.
Assay [10] has as its target HLA-B*40:01. The assay is described as above. The following applies: source organism: Pseudomonas fluorescens.
Assay [11] has as its target HLA-A*02:01. Described as above. Particulars: source organism: Pseudomonas tolaasii.
The target of assay [12] is HLA-A*31:01. The assay is described as above. The following applies: source organism: Pseudomonas tolaasii.
Assay [13] addresses HLA-A*69:01. The assay is described as above. The following applies: source organism: Pseudomonas tolaasii.
Assay [14] deals with HLA-B*08:01. The description is as above.
For assay [15], the target named is HLA-B*07:02. The description is as above. The following applies: source organism: Pseudomonas tolaasii.
Assay [16] addresses HLA-A*03:01. The assay is described as above. The following applies: source organism: Pseudomonas tolaasii.
Assay [17] deals with HLA-A*01:01. Described as above. Particulars: source organism: Pseudomonas tolaasii.
Assay [18] addresses HLA-B*58:01. The assay is described as above. Particulars: source organism: Pseudomonas tolaasii.
The target in assay [19] is HLA-B*15:01. The description is as above. The following applies: source organism: Pseudomonas tolaasii.
The target in assay [20] is HLA-A*26:01. Described as above.
In assay [21] the target is HLA-B*51:01. The assay is described as follows: IEDB peptide-MHC binding, purified MHC/competitive/radioactivity; filed as Kd, often an IC50 or EC50 that approximates it; ≥ and ≤ were set here for values at or beyond the usual limits of such assays.
Assay [22] concerns the target HLA-B*46:01. The assay is described as follows: IEDB peptide-MHC binding, purified MHC/direct/fluorescence; filed as Kd, often an IC50 or EC50 that approximates it; ≥ and ≤ were set here for values at or beyond the usual limits of such assays. The following applies: source organism: Yellow fever virus.
Assay [23] has as its target HLA-B*08:01. The assay is described as follows: IEDB peptide-MHC binding, purified MHC/competitive/radioactivity; filed as Kd, often an IC50 or EC50 that approximates it; ≥ and ≤ were set here for values at or beyond the usual limits of such assays. Particulars: source organism: Dengue virus 1 Brazil/97-11/1997.
The target of assay [24] is HLA-A*02:03. The assay is described as above.
For assay [25], the target named is HLA-A*02:02. Described as above.
The target of assay [26] is HLA-A*32:01. The assay is described as above. The following applies: source organism: Dengue virus 4 Singapore/8976/1995.
Where [27] appears, read: source organism: Dengue virus 4 Philippines/H241/1956.
[28] abbreviates: source organism: Dengue virus 2 Jamaica/1409/1983.
Setting [29] is: source organism: Dengue virus 3 Martinique/1243/1999.
Setting [30] is: source organism: Zaire ebolavirus.
The mark [31] stands for this setting: source organism: Pseudomonas tolaasii.
The mark [32] stands for this setting: source organism: Vaccinia virus WR.
[33] abbreviates: source organism: Dengue virus 3 Sri Lanka/1266/2000.
The mark [34] stands for this setting: source organism: Dengue virus 1 Singapore/S275/1990.
[35] abbreviates: source organism: Dengue virus 1 Brazil/97-11/1997.
Setting [36] is: source organism: Lassa virus Josiah.
Where [37] appears, read: source organism: Dengue virus 4 Dominica/814669/1981.
Setting [38] is: source organism: Sudan ebolavirus.
[39] abbreviates: source organism: Mammarenavirus whitewaterense.

Consider FTVHADTGCA, for which, in assay [1] (setting [27]), the Kd (usually the free concentration of one partner at which half of the binding sites on the other are occupied at equilibrium, for simple one-to-one binding) came out at 134 nM.

Take TEEIAVQNW: the Kd in assay [2] (setting [28]) was 36.8 nM; in [3] (setting [28]), 15.4 nM. GEYRLKGESR: the equilibrium dissociation constant (Kd) in assay [4] (setting [29]) came out at 4130 nM.

For VVIFILLMLV, the Kd is 971 nM in assay [5] (setting [29]) and 767 nM in [1] (setting [29]). With AENTNTSKS, the IC50 – broadly, the concentration needed to halve the response being measured – in [6] is at least 187000 nM; in [7] (setting [30]), at least 534000 nM. As to MEIRPISEK, in assay [3] (setting [29]), the Kd was 1260 nM. As for AEGTGITHL, the dissociation constant (Kd) in [8] was at least 20000 nM; in assay [9], at least 20000 nM; in assay [10] it was 54.3 nM; in assay [11], at least 20000 nM; in assay [12] it was at least 20000 nM; in assay [13] it was at least 20000 nM. The Kd in [14] (setting [31]), in [15], in assay [16], in assay [17], in [18] and in [19] was at least 20000 nM throughout. The sequence also showed a Kd in assay [20] (setting [31]) of at least 20000 nM. As for FSRGNSLSGV, the Kd in assay [21] (setting [28]) turned out to be 11100 nM. As to GEWKEGEEV, the results for the Kd in assay [4] (setting [28]) and in assay [3] (setting [28]) were 295 nM and 16300 nM, respectively.

As to RFLVINRLG, in assay [7] (setting [32]), the IC50 worked out at 16400 nM. For the sequence DTIYPTAIY, the Kd in assay [20] (source organism: Mycobacterium tuberculosis) is 3 nM. Sequence RTWHYCGSY returned a Kd in [22] of at least 20000 nM. On to LEKKITQWL, for which the results for the Kd in assay [4] (setting [33]) and in [3] (setting [33]) were 191 nM and 331 nM, respectively. As for QESADSFLL, the IC50 in assay [7] (setting [30]) was at least 138000 nM. Consider KEENLVKSM, for which, in [4] (setting [34]), the Kd worked out at 2830 nM. Consider FETYQLWTAL, for which the Kd in assay [4] (setting [29]) amounted to 10.4 nM; in assay [21] (setting [29]), 1900 nM.

In the case of MPIRYQTTA, the Kd came to 201 nM in assay [23] and 1690 nM in assay [21] (setting [35]). With GLYKQPGVPV, the Kd in assay [5] (setting [36]) was 804 nM; in [24] (setting [36]) it was 23.8 nM; in assay [1] (setting [36]), at least 5000 nM; in assay [25] (setting [36]) it was 1400 nM. For the sequence VPFCSHHFHE, the Kd in assay [21] (setting [29]) is at least 66600 nM. As for AETQHGTIV, the figures for the Kd in [4] (setting [28]) and in assay [2] (setting [28]) were 15.1 nM and 225 nM, respectively.

As for LETRTETWM, the Kd in assay [4] (setting [28]) worked out at 253 nM. Turning to IETLMLLALI, the Kd in assay [4] (setting [35]) was determined as 206 nM; in assay [2] (setting [35]), 1050 nM. For IENTSANLSL, in assay [4] (setting [27]), the Kd came to 34.4 nM. Take AMKAQFERDL: the Kd in assay [1] (source organism: Homo sapiens) is at least 60000 nM. Regarding DFIGFGAAY, the Kd in assay [20] (source organism: Mycobacterium tuberculosis variant bovis) is 3.2 nM. With SLIEVKTCLW, in assay [2] (setting [27]), the Kd came out at 2330 nM. Turning to TAYGVLFSGV, the Kd in assay [5] (setting [35]) worked out at 1.54 nM; in assay [24] (setting [35]) it was 16.1 nM; in assay [1] (setting [35]), 5.16 nM.

Consider STLELRSGY, for which, in assay [20] (source organism: Influenza A virus (A/Egypt/96/2002(H1N2))), the Kd was found to be 24.8 nM. As for LSVSLVLVGV, the Kd in [5] (setting [28]) came out at 75.5 nM; in [1] (setting [28]) it was 12.2 nM. In the case of FDLCEGTTVV, in [21] (setting [35]), the Kd was found to be 10500 nM. Take NTSMAMTCI: the Kd in assay [1] (setting [27]) was determined as 238 nM. Consider FSLGVLGMAL, for which the Kd in assay [5] (setting [28]) came out at 3.5 nM; in [21] (setting [28]) it was 3860 nM. For the sequence MAEIPLQWI, the Kd in [21] (setting [29]) was 3430 nM.

Consider TEAKQPATL, for which the Kd in assay [4] (setting [28]) amounted to 18.6 nM.

As to TTGKLIWKV, the IC50 in assay [6] came out at 1240 nM; in assay [7] (setting [30]) it was 62700 nM. TAIANQATV: in assay [1] (setting [28]), the Kd turned out to be 10 nM. Turning to MEFIDGISLG, the Kd in assay [4] (setting [27]) was determined as 137 nM. As for MEGVFHTMW, the Kd in [2] (setting [27]) was 2.58 nM; in assay [3] (setting [27]) it was 17.4 nM.

Regarding MTATPPGSV, the Kd in assay [1] (setting [35]) is 6.2 nM. With TEVDRTEAK, the Kd in assay [3] (setting [29]) is at least 20800 nM.

IPPEKCDTL: in assay [21] (source organism: Dengue virus 2 16681-PDK53), the Kd was at least 77400 nM. For the sequence LTAIANQATV, the Kd in assay [1] (setting [28]) stood at 18.8 nM.

For the sequence AERIGEPDY, the Kd was 797 nM in assay [2] (setting [37]) and 203 nM in assay [3] (setting [37]). With NELNYVLWE, in [2] (setting [27]), the Kd was 159 nM. Take SLIKYKKTLL: the Kd in [1] (source organism: Homo sapiens) was found to be 649 nM.

In the case of FGRAKGSRAI, the Kd in [21] (setting [27]) was found to be 14500 nM.

For QKIWMAPSL, the half-inhibitory concentration (IC50) in assay [6] is 14500 nM; in [7] (setting [30]), at least 92400 nM. In [14] (source organism: Influenza A virus (A/Ck/HK/CSW161/2003(H9N2))), ILRKATRRL registered a Kd of 369 nM. Sequence KEYTYPDSL displayed an IC50 in assay [7] (setting [30]) of at least 184000 nM. As for YVQLESRFT, the results for the IC50 in assay [6] and in assay [7] (setting [30]) were 39300 nM and at least 203000 nM, respectively. LWFNYLFGG displayed an IC50 in [7] (source organism: Variola virus) of 57800 nM. In turn, PSATKRWGF gave an IC50 in [7] (setting [38]) of 10200 nM. On to IMRRRQYVL, for which, in assay [14] (source organism: Giardia lamblia ATCC 50803), the Kd was 4 nM.

AICSAVPTEW: the Kd in [3] (setting [27]) stood at 743 nM. Regarding NTPEGIIPA, in assay [1] (setting [35]), the Kd was 9.22 nM. SEFQIYKKS: in [2] (setting [28]), the Kd stood at 825 nM.

For CVMASSVLL, the Kd in [1] (setting [34]) was 1.46 nM. On to LENDEDCAHW, for which the Kd in assay [2] (setting [28]) and in [3] (setting [28]) was 103 nM each time.

As to LTVAANEMGL, in assay [1] (setting [35]), the Kd was found to be 198 nM.

In the case of TIAVSMANI, in assay [1] (setting [28]), the Kd amounted to 34.2 nM.

With AEHSGTSHNI, the Kd in assay [3] (setting [35]) stood at 48.2 nM.

Turning to PWTKISETK, in assay [7] (setting [32]), the IC50 was at least 169000 nM. Turning to ADMGCVVSW, the Kd in assay [26] was 415 nM; in [3] (source organism: Dengue virus 4 Singapore/8976/1995), 10.6 nM. For the sequence GTFHTMWHV, the dissociation constant (Kd) in [5] (setting [28]) worked out at 7.33 nM; in assay [1] (setting [28]) it was 12.2 nM. For the sequence SECPNERRAW, the Kd was determined as 56.5 nM in assay [2] (setting [27]) and 74.7 nM in assay [3] (setting [27]). Turning to GPLIAGGMLI, in [21] (setting [35]), the Kd was found to be 18800 nM. On to ALNIALIAV, for which the Kd in assay [5] (setting [39]) was found to be 100 nM; in assay [24] (setting [39]) it was 0.225 nM; in [1] (setting [39]), 3090 nM; in assay [25] (setting [39]), 0.699 nM. QVFGAIYGA: the Kd in assay [1] (setting [28]) worked out at 1.97 nM.

Turning to EPPFGDSYI, in assay [21] (setting [28]), the Kd was 349 nM. PKRSVMLIG came in with an IC50 in assay [7] (setting [32]) of 38400 nM. In [7] (setting [38]), AGIAWIPYF showed an IC50 of 2640 nM. Consider SEVSNVQRI, for which, in assay [3] (source organism: Lymphocytic choriomeningitis virus (strain Armstrong) (clone 53b)), the Kd stood at 12 nM.
